PMC8188212, “Multi‐Arm PEG/Peptidomimetic Conjugate Inhibitors of DR6/APP Interaction Block Hematogenous Tumor Cell Extravasation” (Advanced Science, 2021)
Square brackets hold non-standard residues; d marks the D form. Side chains are listed from the residue outwards. Ends that are not written are not given here. maleimide = maleimide: 4-arm PEG5k maleimide reacting with the C-terminal Cys thiol

Test: Peptides stability in 25% rat serum
Type: in vitro ADME
Details: FITC-labeled peptides, 25% fresh rat serum, 37 °C, 0, 4, 8, 24, 48, 96 h; acetonitrile/0.1% TFA precipitation; microplate reader; n = 3
Description: FITC‐labeled peptides were added into 25% rat serum and incubated at 37 °C. After incubation at 0, 4, 8, 24, 48, 96 h, 100 µL solution was collected and acetonitrile (containing 0.1% TFA) was added to precipitate the protein in the serum. The serum samples were incubated at 4 °C for 20 min and then centrifuged at 12 000 rpm for 10 min. A total of 20 µL supernatant was measured by a microplate reader.

In the case of “PEG-tAHP-DRI: tetra-(D-retro-inverso isomer of AHP-12) substitued 4-arm PEG5k ([dP][dT][dT][dA][dD][dI][dT]C([maleimide-4‑arm PEG5k]); also: four peptides on one 4-arm PEG5k)”, the “degradation in 25% rat serum (proteolytic stability)” value is reported as “obviously enhanced proteolytic resistance”.
